Results on one molecule are retold here after paper PMC5159498, “IQGAP1 Interaction with RHO Family Proteins Revisited” (The Journal of Biological Chemistry, 2016).

Holding throughout (conditions): both partners purified
Test [1] deals with T1, IQGAP1 GRD1-RGCT wild type (aa 877-1558) (human, UniProt P46940 877-1558).
T1 construct: human IQGAP1, GRD and RGCT domains, lacks the last 99 amino acids, aa 877-1558; also called GRD1-RGCT^WT; IQGAP1^877-1558
T1 sequence (looked up): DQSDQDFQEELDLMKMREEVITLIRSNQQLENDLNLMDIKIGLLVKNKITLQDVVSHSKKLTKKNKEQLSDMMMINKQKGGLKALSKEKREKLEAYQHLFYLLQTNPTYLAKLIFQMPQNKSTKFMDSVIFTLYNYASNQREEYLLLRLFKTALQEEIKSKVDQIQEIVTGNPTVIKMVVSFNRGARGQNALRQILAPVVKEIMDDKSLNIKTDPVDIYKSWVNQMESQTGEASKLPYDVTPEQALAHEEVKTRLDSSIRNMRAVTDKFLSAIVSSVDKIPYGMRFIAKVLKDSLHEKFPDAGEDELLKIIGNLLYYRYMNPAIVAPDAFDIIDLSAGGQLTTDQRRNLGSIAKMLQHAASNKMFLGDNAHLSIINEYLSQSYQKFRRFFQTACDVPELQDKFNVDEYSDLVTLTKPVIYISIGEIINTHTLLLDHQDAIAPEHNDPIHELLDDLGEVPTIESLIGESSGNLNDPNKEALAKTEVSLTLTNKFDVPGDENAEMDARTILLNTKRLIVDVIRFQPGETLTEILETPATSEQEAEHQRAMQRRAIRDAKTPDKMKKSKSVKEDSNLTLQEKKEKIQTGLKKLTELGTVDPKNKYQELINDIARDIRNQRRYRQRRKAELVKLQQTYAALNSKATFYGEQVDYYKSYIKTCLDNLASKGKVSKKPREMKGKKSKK
Description: fluorescence polarisation; IQGAP1 variant titrated to mGppNHp-bound RHO protein (1 μM); equilibrium Kd (eKd), quadratic fit; 30 mM Tris/HCl pH 7.5, 150 mM NaCl, 5 mM MgCl2, 3 mM DTT, 25 °C.

For test [2], the target named is T2, IQGAP1 GRD1-RGCT S1443E (aa 877-1558) (human, UniProt P46940 877-1558, S1443E).
T2 construct: human IQGAP1 aa 877-1558 with the phosphomimetic mutation S1443E (printed as S1143E in the methods, S1443E everywhere else), from the vector pET46 EkLIC; source: E. coli (pLysS BL21(DE3), CodonPlusRIL or BL21(Rosetta)), purified (Ni-NTA, gel filtration)
T2 sequence (looked up): T1 sequence (looked up) with S567E
Described as above.

Test [3] concerns the target T1, IQGAP1 GRD1-RGCT wild type (aa 877-1558). Description: stopped-flow fluorometry; tGppNHp (tamra-GppNHp)-bound CDC42 or CDC42 Q61L (0.2 μM) rapidly mixed with IQGAP1 variant (2-10 μM GRD1-CT for Q61L); Kd = koff/kon; 30 mM Tris-HCl pH 7.5, 10 mM KH2PO4/K2HPO4, 5 mM MgCl2, 3 mM DTT.

Changes are numbered by the printed parent chain.

B1: CDC42 (aa 1-178) (domain or fragment)
chain: not shown
notes: human CDC42, C-terminally truncated, aa 1-178; Loaded non-covalently with mGppNHp, tGppNHp, mGDP or non-fluorescent GppNHp; the nucleotide is named in the format of each assay; also called CDC42^WT; CDC42-mGppNHp
Broadly, the Kd is the equilibrium constant for the complex coming apart. Higher therefore signals weaker binding. As for B1, the Kd is 4.6 µM in test [1], 16.3 µM in test [2] and 1.45 µM in test [3].
